Data from patent US20100129344A1 (published 2010).

Key:
IGF-II (human) [1] = molecular target: T1, IGF-II (human) (human, UniProt P01344 25-91); assay: BIAcore, IGF-II on chip, 400 nM
T1 construct: also called radioiodinated IGF-II
Protocol: The sensor surface was regenerated with 20 μl of 100 mM HCl and washed for 6 min before the next sample. We used a 1:1 Langmuir binding interaction model for kinetic analysis using the BIAcore software and GraphPad Prism (GraphPad Software Inc, San Diego, Calif.).
The interaction of proteolysed IGFBP-1 with IGF-I and IGF-II biosensor surfaces was analysed (BIAcore). […] The kinetic analyses of the rates of association (over 21-120 s, ks) and dissociation (over 261-360 s, kd) for the results shown in FIGS. 12A and 12B are summarized in Table 2. […] The rate of dissociation further increased to more than 7-fold at the 4-h time point. The rate of dissociation of IGFBP-1 from IGF-II was greater than twice that from IGF-I, and proteolysis had no effect on this relationship.
TABLE 2 Kinetic analysis of interactions of intact and proteolysed phosphorylated IGFBP-1 with IGF biosensor surfaces The kinetic data shown in […] were analysed using the 1:1 Langmuir interaction model. IGFBP-I was injected either intact, or after 2- or 4-proteolysis by azurocidin, over IGF-I and IGF-II biosensor surfaces.

[2] = molecular target: T2, Recombinant IGF-I (human) (human, UniProt P05019 49-118); assay: BIAcore, IGF-I on chip, 200 nM (the reference itself)
T2 construct: also called IGF-1; full length IGF-I
T2 sequence (P05019 49-118 limits assumed): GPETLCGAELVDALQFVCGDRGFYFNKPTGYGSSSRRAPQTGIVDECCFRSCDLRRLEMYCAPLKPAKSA
Protocol: (§1) Instrument and reagents (buffers, chemicals for activating and deactivated) were purchased from BIAcore (Uppsala, Sweden). IGF-I, IGF-II and des(1-3)IGF-I were immobilized on the sensor chip by amine coupling and deactivated with 0.1M ethanolamine. A reference flow cell was also prepared to correct for background and bulk refractive index contribution. After equilibration buffer to achieve a stable baseline, binding experiments was at 22 C in 2 separate experiments with the samples injected in random order. 40 μl of each sample was injected over the sensor surface at a rate of 10 μl/min (association period), followed by a 6 min wash with buffer (dissociation period). The sensor surface was regenerated with 20 μl of 100 mM HCl and washed for 6 min before the next sample. We used a 1:1 Langmuir binding interaction model for kinetic analysis using the BIAcore software and GraphPad Prism (GraphPad Software Inc, San Diego, Calif.).
(§2) The interaction of proteolysed IGFBP-1 with IGF-I and IGF-II biosensor surfaces was analysed (BIAcore). In FIG. 12 the mean biosensorgrams for the interaction of 200 nM phosphorylated IGFBP-1 intact are shown, and after 2-h and 4-h incubations with partially purified azurocidin, with immobilized IGF-I (FIG. 12A) and IGF-II (FIG. 12B). […]

IGF-II (human) [3] = molecular target: T1, IGF-II (human); assay: cell-based or functional assay
IGF-II (human) [4] = molecular target: T1, IGF-II (human); assay: BIAcore, IGF-II on chip against IGF-I on chip, 200 nM
Protocol: as §1, §2

IGF-II (human) [5] = molecular target: T1, IGF-II (human); assay: BIAcore, IGF-II on chip against IGF-I on chip, 400 nM
Protocol: as §1
The interaction of proteolysed IGFBP-1 with IGF-I and IGF-II biosensor surfaces was analysed (BIAcore). […] The kinetic analyses of the rates of association (over 21-120 s, ks) and dissociation (over 261-360 s, kd) for the results shown in FIGS. 12A and 12B are summarized in Table 2. […] The rate of dissociation further increased to more than 7-fold at the 4-h time point. […]

des(1-3)IGF-I = molecular target: T3, des(1-3)IGF-I (human, UniProt P05019 52-118); assay: BIAcore, des(1-3)IGF-I amine-coupled on chip
T3 construct: domain: des(1-3)IGF-I (mature IGF-I without its first three residues)
T3 sequence (P05019 52-118 limits assumed): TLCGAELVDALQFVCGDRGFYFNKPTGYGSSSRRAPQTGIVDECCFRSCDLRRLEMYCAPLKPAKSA
Protocol: Recombinant pIGFBP-1 was analyzed across a des(1-3) IGF-I biosensor surfaces with a concentration range of 50, 100, 200, 400 nM, at a flow rate of 10 μl/min. The mean sensorgrams are shown for 400 nM IGFBP-1 (intact, n=3) and 200 nM IGFBP-1, intact (0 h, n=4) and after 2-h (n=5) and 4-h (n=3) incubations with partially purified azurocidin in a protease:substrate ratio of 1:3 500 for 2 h at 37 C.
as §1, with “We used a 1:1 Langmuir binding interaction model for kinetic analysis using the BIAcore software and GraphPad Prism (GraphPad Software Inc, San Diego, Calif.).” left out
The interaction of IGFBP-1 with des(1-3)IGF-I on the biosensor surface was also determined. […]

IGF-II (human) [6] = molecular target: T1, IGF-II (human); assay: BIAcore, IGF-II on chip, 200 nM (the reference itself)
Protocol: as §1, §2

[7] = molecular target: T2, Recombinant IGF-I (human); assay: BIAcore, IGF-I on chip, 400 nM
Protocol: as §1, §2

T1 sequence (P01344 25-91 limits assumed): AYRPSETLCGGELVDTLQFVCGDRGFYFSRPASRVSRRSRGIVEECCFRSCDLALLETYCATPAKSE

B1: Recombinant phosphorylated IGFBP-1 (human), intact (other, UniProt P08833 26-259, looked up)
chain: APWQCAPCSAEKLALCPPVSASCSEVTRSAGCGCCPMCALPLGAACGVATARCARGLSCRALPGEQQPLHALTRGQGACVQESDASAPHAAEAGSPESPESTEITEEELLDNFHLMAPSEEDHSILWDAISTYDGSKALHVTNIKKWKEPCRIELYRVVESLAKAQETSGEEISKFYLPNCNKNGFYHSRQCETSMDGEAGLCWCVYPWNGKRIPGSPEIRGDPNCQIYFNVQN
modifications: phosphorylated; the sites were not determined here (the filing names Ser101, Ser119, Ser169 as sites for phosphorylation)
notes: mature; Analyte in the BIAcore runs and substrate in the protease assays; also called pIGFBP-1; recombinant pIGFBP-1
IGF-II (human) [1]
  rel kd (relative to 200 nM intact pIGFBP-1): 0.97 ratio
  rel ks (relative to 200 nM intact pIGFBP-1): 1.86 ratio
[2]
  rel kd (relative to 200 nM intact pIGFBP-1): 1 ratio
  rel ks (relative to 200 nM intact pIGFBP-1): 1 ratio
IGF-II (human) [3]
  3H-thymidine incorporation in MCF-7 cells stimulated by IGF-II 10 ng/ml (2-fold without IGFBP-1): 1.5 fold
IGF-II (human) [4]
  kd rel to IGF-I: 2.41 ratio
  ks rel to IGF-I: 1.02 ratio
IGF-II (human) [5]
  kd rel to IGF-I: 2.33 ratio
  ks rel to IGF-I: 1.01 ratio
des(1-3)IGF-I
  fold lower biosensor response than with full length IGF-I: 10 fold less
IGF-II (human) [6]
  rel kd (relative to 200 nM intact pIGFBP-1): 1 ratio
  rel ks (relative to 200 nM intact pIGFBP-1): 1 ratio
[7]
  rel kd (relative to 200 nM intact pIGFBP-1): 1 ratio
  rel ks (relative to 200 nM intact pIGFBP-1): 1.91 ratio
